The target of the assay is Kansetin (human) (UniProt Q9BYF1). The assay can be described thus: SPR.

This note sets out measurements from paper PMC9695261.

The term Kd denotes the free concentration of one partner at which half of the binding sites on the other are occupied at equilibrium, for simple one-to-one binding. In turn, “His-tagged RBD of the SARS-CoV-2 Omicron BA.5 strain (domain or fragment)” yielded a Kd of 33.1 nM.

With “Spike S1+S2 trimer of the SARS-CoV-2 Omicron BA.5 strain (natural protein)”, the Kd was determined as 1.22 nM.
